Reference: article PMC3688683, “The N-Terminal Domains of Vps3 and Vps8 Are Critical for Localization and Function of the CORVET Tethering Complex on Endosomes” (PLoS ONE, 2013)

Target: T1, Vps3-TAP (full-length Vps3, C-terminal TAP tag) (yeast (genomic locus of BY4741/BY4733 …, UniProt P23643 1-1011))
T1 construct: Vps3, CORVET-specific subunit, yeast, full-length; also called Vps3-Cbp; source: yeast, genomically TAP-tagged, in lysate; overexpressed and TAP-purified from yeast for the GST-Rab pull-down; not shown: TAP, C-terminal, kept
T1 sequence (looked up): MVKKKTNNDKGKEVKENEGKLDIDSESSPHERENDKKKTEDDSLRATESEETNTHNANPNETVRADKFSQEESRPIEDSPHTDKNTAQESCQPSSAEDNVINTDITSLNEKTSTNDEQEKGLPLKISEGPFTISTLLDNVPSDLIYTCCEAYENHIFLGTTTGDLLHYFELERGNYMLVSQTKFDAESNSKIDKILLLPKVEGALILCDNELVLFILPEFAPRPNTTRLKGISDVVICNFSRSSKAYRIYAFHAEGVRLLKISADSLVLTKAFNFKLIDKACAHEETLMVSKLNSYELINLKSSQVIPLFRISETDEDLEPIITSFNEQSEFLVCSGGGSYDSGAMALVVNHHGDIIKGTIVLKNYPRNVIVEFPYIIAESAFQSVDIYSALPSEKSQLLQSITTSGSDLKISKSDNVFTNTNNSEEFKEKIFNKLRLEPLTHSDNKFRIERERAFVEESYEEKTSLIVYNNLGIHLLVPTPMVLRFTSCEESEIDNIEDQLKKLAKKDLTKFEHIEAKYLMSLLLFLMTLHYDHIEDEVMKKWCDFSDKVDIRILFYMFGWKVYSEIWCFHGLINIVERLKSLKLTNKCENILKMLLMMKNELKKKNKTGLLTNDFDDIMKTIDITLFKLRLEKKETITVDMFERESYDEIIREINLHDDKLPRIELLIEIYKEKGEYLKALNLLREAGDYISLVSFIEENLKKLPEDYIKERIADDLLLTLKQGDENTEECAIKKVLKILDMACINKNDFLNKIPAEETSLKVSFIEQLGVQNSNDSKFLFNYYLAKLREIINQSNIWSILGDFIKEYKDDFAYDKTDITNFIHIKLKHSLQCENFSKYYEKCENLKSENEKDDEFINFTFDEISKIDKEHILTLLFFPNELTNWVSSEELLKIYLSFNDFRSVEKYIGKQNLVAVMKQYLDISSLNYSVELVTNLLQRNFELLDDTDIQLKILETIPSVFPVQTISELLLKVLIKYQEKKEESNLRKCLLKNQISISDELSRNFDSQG
Assay: pull-down; 150 µg GST-Vps21 loaded with GTPγS (or GDP) on GSH-Sepharose; 35 µg yeast-purified Vps3-Cbp construct, 1 h at 4°C; 20 mM HEPES/NaOH pH 7.4, 150 mM NaCl, 2 mM MgCl2, 0.1% NP-40, 7 mg/ml BSA; eluted with 20 mM EDTA; blot against Cbp
Settings: both partners purified

binding result: binds
B1: GST-Vps21 (natural protein, yeast, UniProt P36017 1-210, looked up)
chain: MNTSVTSIKLVLLGEAAVGKSSIVLRFVSNDFAENKEPTIGAAFLTQRVTINEHTVKFEIWDTAGQERFASLAPMYYRNAQAALVVYDVTKPQSFIKARHWVKELHEQASKDIIIALVGNKIDMLQEGGERKVAREEGEKLAEEKGLLFFETSAKTGENVNDVFLGIGEKIPLKTAEEQNSASNERESNNQRVDLNAANDGTSANSACSC
notes: Vps21, endosomal Rab5-like GTPase of yeast; loaded with GTPγS or GDP before the pull-down; Held on GSH-Sepharose; nucleotide state set by loading with 1 mM GTPγS or GDP; also called Vps21-GTP; immobilized Vps21; source: recombinant
